Data from patent US20250333523A1 (Alector, published 2025).
Where a chain is given by its changes, count along the chain named. Where “and” joins values, the source holds several entries; their conditions need not be identical. Identical values can stand only once. Like-named read-outs stand apart in the source and are kept apart here.

B1: anti-IL18BP antibody BP-02 (antibody, human IgG1, V domains shown)
VH: EVQLQQSGPELVKPGASVKIPCKASGYTFTDYNMDWVKQSHGKSLEWIGNINTNNGGTVYNQKFKGKATLTVDKSSSTAYMELRSLTSEDTAVYYCARSDTTVVASRYYAMDYWGQGTSVTVSL
VL: DIVLTQSPASLAMSLGKRATISCRASESVSIIATNLIHWYQQKPGQPPKLLIYHASNLETGVPARFSGSGSRTDFTLTIDPVEKDDVAIYYCLQSRKIPPTFGGGTKLEIK
B2: anti-IL18BP antibody BP-05 (antibody, human IgG1, V domains shown)
VH: B1 VH with G66D, M111L, L124S
VL: B1 VL with A33G, N35D, K84E
B3: anti-IL18BP antibody BP-04 (antibody, V domains shown)
VH: HVHLHQSGAELVRPGVSVKISCRGSGYTFTDYDVHWVKQSHAKSLEWIGVISTYYGDVGYNQEFKGKATMTLDKSSSTSYLELARLTSEDSAIYYCARSGTYYYGTRESHALDYWGQGTSVTVSS
VL: DIQMTQSPASLSVSVGETVTITCRTSDNVYSNLAWYQQKQGKSPQLLVYGAINLADGVPSRFSGSGSDTQYSLKINNLQSEDFGSYYCQHFWGNPYTFGGGTKLEIK
notes: also called BP-04 (hybridoma); BP-04 (parental)
B4: anti-IL18BP antibody BP-15 (antibody, human IgG1, V domains shown)
VH: QVQLVQSGAEVKKPGASVKVSCKASGYTFTTYDINWVRQAPGQGLEWMGIINPSGGSTSYAQKFQGRVTMTRDTSTSTVYMELSSLRSEDTAVYYCATGIGELDFDYWGQGTLVTVSS
VL: DIQMTQSPSSLSASVGDRVTITCRASQSISSYLNWYQQKPGKAPKLLIYKASTLHNGVPSRFSGSGSGTDFTLTISNLQPEDFATYYCQQAISFPLTFGGGTKVEIK
B5: anti-IL18BP antibody BP-16 (antibody, human IgG1, V domains shown)
VH: B4 VH with N52G, P53S, S54Y, S57A, G99A, I100E, G101E, D104R
VL: B4 VL

Key:
[1] = target: T1, Avi/HisMsIL18BPd (recombinant mouse IL-18BP with Avi and poly-His tags) (mouse, biotinylated with BirA on the Avi tag in some assays); assay: ELISA, coated IL-18BP
T1 construct: also called murine IL-18BP; IL-18BP-Avi-His (mouse)
T1 chain: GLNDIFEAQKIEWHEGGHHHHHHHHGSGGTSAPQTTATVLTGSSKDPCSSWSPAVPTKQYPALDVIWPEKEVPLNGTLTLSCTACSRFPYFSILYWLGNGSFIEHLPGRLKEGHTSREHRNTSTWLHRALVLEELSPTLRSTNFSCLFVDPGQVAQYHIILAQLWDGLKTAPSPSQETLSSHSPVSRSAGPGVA

[2] = target: T2, His/Avi-CynoIL18BP (recombinant cynomolgus IL-18BP with His and Avi tags) (cynomolgus monkey); assay: ELISA, coated IL-18BP
T2 construct: also called cynomolgus IL-18BP-Avi-His
T2 chain: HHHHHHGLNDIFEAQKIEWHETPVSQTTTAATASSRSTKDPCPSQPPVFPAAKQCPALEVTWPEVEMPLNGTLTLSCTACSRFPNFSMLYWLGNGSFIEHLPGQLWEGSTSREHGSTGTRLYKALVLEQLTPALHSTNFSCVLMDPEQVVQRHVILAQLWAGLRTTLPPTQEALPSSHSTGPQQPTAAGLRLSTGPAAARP

[3] = target: T3, Avi/His-HuIL18BPa (recombinant human IL-18BP isoform A with Avi and poly-His tags) (human, biotinylated with BirA on the Avi tag in some assays); assay: ELISA, coated IL-18BP
T3 construct: also called human IL-18BP-Avi-His
T3 chain: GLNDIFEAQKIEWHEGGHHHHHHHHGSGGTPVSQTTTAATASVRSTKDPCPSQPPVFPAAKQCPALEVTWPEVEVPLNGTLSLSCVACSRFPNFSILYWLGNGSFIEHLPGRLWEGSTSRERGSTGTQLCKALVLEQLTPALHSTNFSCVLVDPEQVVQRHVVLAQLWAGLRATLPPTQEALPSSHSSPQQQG

[4] = target: T1, Avi/HisMsIL18BPd (recombinant mouse …); assay: cell-based or functional assay
[5] = target: T3, Avi/His-HuIL18BPa (recombinant human …); assay: cell-based or functional assay
[6] = target: T3, Avi/His-HuIL18BPa (recombinant human …); assay: SPR Carterra LSA, IgG immobilized
[7] = target: T3, Avi/His-HuIL18BPa (recombinant human …); assay: blocking ELISA, competitor human IL-18
[8] = target: T2, His/Avi-CynoIL18BP (recombinant …); assay: cell-based or functional assay
[9] = target: T2, His/Avi-CynoIL18BP (recombinant …); assay: SPR Carterra LSA, IgG immobilized; WB = weak binding with KD > 1 µM
[10] = target: T4, mouse IL-18BPd-human IgG Fc (R&D Systems, Cat. #122-BP-100) (mouse; human, UniProt Q9Z0M9 29-193); assay: blocking ELISA, competitor mouse IL-18
T4 construct: Bought; also called mouse IL-18BPd-Fc Chimera
T4 sequence (looked up): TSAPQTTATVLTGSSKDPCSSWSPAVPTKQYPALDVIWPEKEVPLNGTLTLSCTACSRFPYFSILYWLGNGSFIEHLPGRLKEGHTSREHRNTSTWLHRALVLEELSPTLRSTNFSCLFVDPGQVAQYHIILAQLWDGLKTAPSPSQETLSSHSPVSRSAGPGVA

[11] = target: T2, His/Avi-CynoIL18BP (recombinant …); assay: blocking ELISA, competitor rhesus IL-18
[12] = target: T2, His/Avi-CynoIL18BP (recombinant …); assay: SPR Carterra LSA, IgG immobilized
[13] = target: T1, Avi/HisMsIL18BPd (recombinant mouse …); assay: cell-based or functional assay
[14] = target: T3, Avi/His-HuIL18BPa (recombinant human …); assay: cell-based or functional assay
[15] = target: T2, His/Avi-CynoIL18BP (recombinant …); assay: SPR Biacore T200, IgG captured on Protein A/G
[16] = target: T3, Avi/His-HuIL18BPa (recombinant human …); assay: SPR Biacore T200, IgG captured on Protein A/G
[17] = target: T2, His/Avi-CynoIL18BP (recombinant …); assay: SPR Biacore T200, IgG captured on Protein A/G
[18] = target: T3, Avi/His-HuIL18BPa (recombinant human …); assay: SPR Biacore T200, IgG captured on Protein A/G

Row | Binder | ELISA binding ratio (fold-change over background) [1] [fold over background] | ELISA binding ratio (fold-change over background) [2] [fold over background] | ELISA binding ratio (fold-change over background) [3] [fold over background] | EC50 of IFNγ release, mouse splenocytes [4] [nM] | Fold change of IFNγ at 10 µg/ml vs baseline, mouse splenocytes [4] [fold] | EC50 of IFNγ release, human PBMC [5] [nM] | Fold change of IFNγ at 10 µg/ml vs baseline, human PBMC [5] [fold] | Kd [6] [nM] | blocking ELISA signal normalized to isotype control (=1) [7] | % of Max Gamma, human NK cells [8] [%] | EC50 of IFNγ release, human NK cells [8] [nM] | Kd [9] [nM] | blocking ELISA signal normalized to isotype control (=1) [10] | blocking ELISA signal normalized to isotype control (=1) [11] | also measured
1 | B1 | 39.2 | 29.7 | 35.1 | 4.3 | 9.34 | 0.75 | 16.7 | 1.6 | 0.167 ratio to isotype control | 10.4 | 1.99 | > 1000 | 0.132 ratio to isotype control | 0.973 ratio to isotype control | 
2 | B2 | 32.1 | 9.7 | 38.3 | 2.94 | 3.15 | 1.33 | 16.4 | 1.67 | 0.191 ratio to isotype control |  |  | > 1000 | 0.138 ratio to isotype control | 0.989 ratio to isotype control | 
3 | B3 | 39.1 | 45.2 | 39.7 | 4.29 | 2.74 | 0.67 | 19 | 0.8 | 0.165 ratio to isotype control | 25.9 | 2.41 |  | 0.122 ratio to isotype control | 0.943 ratio to isotype control | Kd [12]: 3 nM; EC50 of IFNγ release, mouse splenocytes [13]: 14.9 nM; EC50 of IFNγ release, human PBMCs [14]: 15.7 nM; Kd [15]: 7.3 nM and 8.5 nM; koff [15]: 0.0032 s⁻¹ and 0.0033 s⁻¹; kon [15]: 440000 M⁻¹ s⁻¹ and 390000 M⁻¹ s⁻¹; Kd [16]: 1 nM and 1.1 nM; koff [16]: 0.00059 s⁻¹ and 0.00062 s⁻¹; kon [16]: 580000 M⁻¹ s⁻¹
4 | B4 | 30.1 | 34.5 | 32.7 | 5.85 | 7.94 | 100 | 36 | 18.8 |  | 10 | 0.000106 | > 1000 | 0.211 ratio to isotype control |  | 
5 | B5 | 22.1 | 25.1 | 23.6 | 3.08 | 11.9 | 1.66 | 238 |  |  | 51.6 | 8.4 |  |  |  | Kd [17]: 11.8 nM; Kd [18]: < 3 pM
